From the Human Domainome abundance scans (Beltran et al. 2025) come the findings set out here.

± gives the uncertainty stated by the source.

Sequences and labels used below:
B1: WW domain-binding protein 4, residues 8 to 43; numbered along this chain, O75554 (parent)
chain: QPKKFCDYCKCWIADNRPSVEFHERGKNHKENVAKR

Variants of B1 are the subject of this series. Nature of the series: abundance fitness (aPCA) (normalised: wild type 0, dead -1); higher = more abundant; growth selection in yeast, the domain comes from the species named. As to conditions: Homo sapiens.
Take QPKKFSDYCKCWIADNRPSVEFHERGKNHKENVAKR [C6S]: the abundance fitness is -0.615 ± 0.077. Then QPKKFCDYCKCWIADNKPSVEFHERGKNHKENVAKR [R17K], with -0.098 ± 0.15; and QPKCFCDYCKCWIADNRPSVEFHERGKNHKENVAKR [K4C], with -0.453 ± 0.09; and QPKAFCDYCKCWIADNRPSVEFHERGKNHKENVAKR [K4A], with -0.291 ± 0.063. Turning to QPKTFCDYCKCWIADNRPSVEFHERGKNHKENVAKR [K4T], the abundance fitness is -0.022 ± 0.18. Then QPKKFCDYCKCWIADNRFSVEFHERGKNHKENVAKR [P18F], with -0.431 ± 0.46; and QPKKFCDYCKCWIADNRDSVEFHERGKNHKENVAKR [P18D], with -0.388 ± 0.27; and QPKKICDYCKCWIADNRPSVEFHERGKNHKENVAKR [F5I], with -0.379 ± 0.12.

With QPKKSCDYCKCWIADNRPSVEFHERGKNHKENVAKR [F5S], the abundance fitness was -0.468 ± 0.087. Consider QPKKFCDYCKCWIADNRPSVEFHERGKNHKENVAKE [R36E], for which the abundance fitness stood at 0.245 ± 0.094. In the case of QPKKFCDYCKCWIADNRPSVEFHERGKNHPENVAKR [K30P], the abundance fitness is -0.246 ± 0.097. Then QPKKFCDYCKCWIADNRPSVEFHERGKNHGENVAKR [K30G], with -0.019 ± 0.057; and QPKKFCQYCKCWIADNRPSVEFHERGKNHKENVAKR [D7Q], with -0.113 ± 0.097; and QPKKFCDYCKCWIAMNRPSVEFHERGKNHKENVAKR [D15M], with -0.128 ± 0.17. As for QPKKFCDYCKCWIAFNRPSVEFHERGKNHKENVAKR [D15F], the abundance fitness is -0.235 ± 0.11. In the case of QPKKFCDYCKCWIADNRPSVEFHERGKCHKENVAKR [N28C] it was -0.097 ± 0.2; in that of QPKKFCDYCKCWIADNRPWVEFHERGKNHKENVAKR [S19W], -0.672 ± 0.089. Then QPKKFCDYCKCWIADNRPTVEFHERGKNHKENVAKR [S19T], with -0.079 ± 0.078; and QPKKFCDGCKCWIADNRPSVEFHERGKNHKENVAKR [Y8G], with -0.224 ± 0.06.

For the variant QPKKFCDDCKCWIADNRPSVEFHERGKNHKENVAKR [Y8D], the abundance fitness came out at 0.129 ± 0.15.

Consider QPKKFCDECKCWIADNRPSVEFHERGKNHKENVAKR [Y8E], for which the abundance fitness was determined as 0.048 ± 0.096. For QPKKFCDCCKCWIADNRPSVEFHERGKNHKENVAKR [Y8C], the abundance fitness was -0.269 ± 0.12.

Turning to QPKKFCDYCKCWICDNRPSVEFHERGKNHKENVAKR [A14C], the abundance fitness was -0.169 ± 0.1.

Take QPKKFCDYCKCWILDNRPSVEFHERGKNHKENVAKR [A14L]: the abundance fitness was -0.558 ± 0.074.

Take QPKKFCDYCKCWIADNRPSVEVHERGKNHKENVAKR [F22V]: the abundance fitness stood at 0.085 ± 0.056. For the variant QPKKFCDYCKCWIADNRPSVEGHERGKNHKENVAKR [F22G], the abundance fitness came out at 0.111 ± 0.059.

For the variant QPKKFCDYCKCWIADNRPSVEIHERGKNHKENVAKR [F22I], the abundance fitness is -0.33 ± 0.14. In the case of QPKKFCDYCKCWIADNRPSVENHERGKNHKENVAKR [F22N] it was -0.035 ± 0.17; in that of QPKKFCDYCKCWTADNRPSVEFHERGKNHKENVAKR [I13T], -0.261 ± 0.096; in that of KPKKFCDYCKCWIADNRPSVEFHERGKNHKENVAKR [Q1K], -0.879 ± 0.15. Turning to SPKKFCDYCKCWIADNRPSVEFHERGKNHKENVAKR [Q1S], the abundance fitness was -0.651 ± 0.11. In the case of LPKKFCDYCKCWIADNRPSVEFHERGKNHKENVAKR [Q1L] it was -0.654 ± 0.081; in that of TPKKFCDYCKCWIADNRPSVEFHERGKNHKENVAKR [Q1T], -0.509 ± 0.12; in that of QPKKFCDYCYCWIADNRPSVEFHERGKNHKENVAKR [K10Y], 0.002 ± 0.33. As for QPKKFCDYCQCWIADNRPSVEFHERGKNHKENVAKR [K10Q], the abundance fitness was -0.146 ± 0.1. In the case of QPKKFCDYCKCWIADTRPSVEFHERGKNHKENVAKR [N16T] it was 0.185 ± 0.067; in that of QPKKFCDYCKCWIADGRPSVEFHERGKNHKENVAKR [N16G], 0.151 ± 0.055; in that of QPKKFCDYCKCWIADNRPSVEFVERGKNHKENVAKR [H23V], -0.895 ± 0.094. Then QPKKFCDYCKCWIADNRPSVEFGERGKNHKENVAKR [H23G], with -0.689 ± 0.063; and QPKKFCDYCKCWIADNRPSVEFHSRGKNHKENVAKR [E24S], with -0.232 ± 0.078. In the case of QPKKFCDYCKCWIADNRPSVEFHNRGKNHKENVAKR [E24N], the abundance fitness is -0.163 ± 0.11. In the case of QPKKFCDYCKCWIADNRPSVEFHYRGKNHKENVAKR [E24Y] it was -0.183 ± 0.21; in that of QPKKFCDYCKCWIADNRPSVEFHPRGKNHKENVAKR [E24P], -0.915 ± 0.091. Then QPKKFCDYCKCWIADNRPSVEFHLRGKNHKENVAKR [E24L], with -0.614 ± 0.098; and QPKKFCDYCKFWIADNRPSVEFHERGKNHKENVAKR [C11F], with -0.417 ± 0.14. QPKKFCDYCKSWIADNRPSVEFHERGKNHKENVAKR [C11S]: the abundance fitness was 0.101 ± 0.075. Then QPKKFCDYCKTWIADNRPSVEFHERGKNHKENVAKR [C11T], with 0.087 ± 0.17.

On to QPKKFCDYCKCWIADNRPSVEFHERGRNHKENVAKR [K27R], for which the abundance fitness is -0.08 ± 0.061. Then QPKKFCDYCKCWIADNRPSVEFHERGDNHKENVAKR [K27D], with -0.192 ± 0.098; and QPKKFCDYCKCWIADNRPSVEFHERGPNHKENVAKR [K27P], with -0.226 ± 0.11.

Consider QPQKFCDYCKCWIADNRPSVEFHERGKNHKENVAKR [K3Q], for which the abundance fitness stood at 0.082 ± 0.08. Consider QPVKFCDYCKCWIADNRPSVEFHERGKNHKENVAKR [K3V], for which the abundance fitness is -0.279 ± 0.065.

Regarding QPKKFCDYCKCWIADNRPSVEFHERGKNHKENMAKR [V33M], the abundance fitness is -0.074 ± 0.34. In the case of QPKKFCDYCKCWIADNRPSVEFHERGKNHKENDAKR [V33D] it was -0.22 ± 0.098; in that of QPKKFCDYCKCWIADNRPSVEFHERGKNHKENPAKR [V33P], -0.315 ± 0.1.

Turning to QGKKFCDYCKCWIADNRPSVEFHERGKNHKENVAKR [P2G], the abundance fitness is 0.136 ± 0.06. In the case of QWKKFCDYCKCWIADNRPSVEFHERGKNHKENVAKR [P2W] it was -0.692 ± 0.085; in that of QPKKFCDYCKCLIADNRPSVEFHERGKNHKENVAKR [W12L], -0.087 ± 0.068. Then QPKKFCDYCKCTIADNRPSVEFHERGKNHKENVAKR [W12T], with -0.066 ± 0.079; and QPKKFCDYCKCDIADNRPSVEFHERGKNHKENVAKR [W12D], with -0.219 ± 0.079. Then QPKKFCDYCKCPIADNRPSVEFHERGKNHKENVAKR [W12P], with 0.188 ± 0.22; and QPKKFCDYCKCWIADNRPSVEFHEQGKNHKENVAKR [R25Q], with 0.049 ± 0.088.

With QPKKFCDYCKCWIADNRPSVEFHELGKNHKENVAKR [R25L], the abundance fitness is -0.106 ± 0.066. Regarding QPKKFCDYCKCWIADNRPSDEFHERGKNHKENVAKR [V20D], the abundance fitness was -0.591 ± 0.17. QPKKFCDYCKCWIADNRPSFEFHERGKNHKENVAKR [V20F]: the abundance fitness is -0.442 ± 0.22.

On to QPKKFCDYCKCWIADNRPSVEFHERGKNHKCNVAKR [E31C], for which the abundance fitness was -0.302 ± 0.18.

Turning to QPKKFCDYCKCWIADNRPSVEFHERGKNHKANVAKR [E31A], the abundance fitness came out at 0.01 ± 0.068. In the case of QPKKFCDYCKCWIADNRPSVEFHERWKNHKENVAKR [G26W] it was -0.277 ± 0.068; in that of QPKKFCDYCKCWIADNRPSVEFHERRKNHKENVAKR [G26R], -0.228 ± 0.059.

As for QPKKFCDYCKCWIADNRPSVEFHEREKNHKENVAKR [G26E], the abundance fitness amounted to 0.153 ± 0.1. In the case of QPKKFCDYCKCWIADNRPSVEFHERGKNTKENVAKR [H29T] it was -0.63 ± 0.11; in that of QPKKFCDYCKCWIADNRPSVEFHERGKNVKENVAKR [H29V], -0.349 ± 0.12. In the case of QPKKFCDYCKCWIADNRPSVEFHERGKNHKENVASR [K35S] it was -0.034 ± 0.068. In the case of QPKKFCDYCKCWIADNRPSVEFHERGKNHKENVAGR [K35G] it was 0 ± 0.065.
